The nature of the data set: Animal Experiment (1): radioactivity distribution of 111In-labeled NGA in organs after tail vein administration. As for the experimental part:
Five mice per group were slaughtered 5 minutes or 1 hour after the administration, the blood and organs of interest were recovered, and after measuring the organ weight, the radioactivity was measured with an auto-well gamma counter.

Where [1] appears, read: 5 minutes after the administration, tail vein, male ddY mouse.
The mark [2] stands for this setting: 1 hour after the administration, tail vein, male ddY mouse.
[3] abbreviates: mouse, in vivo, iv, 11.1 kBq/8 ug protein/100 uL/mouse, 5 min.
[4] abbreviates: mouse, in vivo, iv, 11.1 kBq/8 ug protein/100 uL/mouse, 1 h.

With ^111In-DO3ABn-Gly-Lys-NGA, under setting [1], the “radioactivity (% ID) Blood” value is 0.1 ± 0.2 % ID, the “radioactivity (% ID) Heart” value was 0.0 ± 0.0 % ID, the “radioactivity (% ID) Kidney” value came to 0.1 ± 0.0 % ID and the “radioactivity (% ID) Liver” value is on record as 89.5 ± 3.4 % ID. Moreover, under setting [1], the “radioactivity (% ID) Lung” value amounted to 0.1 ± 0.1 % ID, the “radioactivity (% ID) Pancreas” value came out at 0.0 ± 0.0 % ID, the “radioactivity (% ID) Small intestine” value is listed as 0.1 ± 0.1 % ID and the “radioactivity (% ID) Spleen” value was found to be 0.2 ± 0.0 % ID. Also, the “radioactivity (% ID) Stomach” value under setting [1] turned out to be 0.1 ± 0.1 % ID. Under setting [2], the “radioactivity (% ID) Blood” value came to 0.0 ± 0.0 % ID, the “radioactivity (% ID) Heart” value is listed as 0.0 ± 0.0 % ID, the “radioactivity (% ID) Kidney” value stood at 0.2 ± 0.0 % ID and the “radioactivity (% ID) Liver” value was determined as 89.1 ± 1.2 % ID. For the same substance, under setting [2], the “radioactivity (% ID) Lung” value is recorded as 0.0 ± 0.0 % ID, the “radioactivity (% ID) Pancreas” value is given as 0.0 ± 0.0 % ID, the “radioactivity (% ID) Small intestine” value came to 2.5 ± 0.7 % ID and the “radioactivity (% ID) Spleen” value stood at 0.2 ± 0.0 % ID. The “radioactivity (% ID) Stomach” value under setting [2] was 0.1 ± 0.1 % ID.

Take ^111In-DO3ABn-Phe-Lys-NGA: under setting [3], the “radioactivity (% ID) Blood” value is recorded as 0.1 ± 0.0 % ID, the “radioactivity (% ID) Kidney” value is 0.2 ± 0.0 % ID, the “radioactivity (% ID) Liver” value worked out at 91.1 ± 6.2 % ID and the “radioactivity (% ID) Lung” value is 0.1 ± 0.0 % ID. For the same substance, under setting [3], the “radioactivity (% ID) Small intestine” value stood at 0.1 ± 0.1 % ID, the “radioactivity (% ID) Spleen” value came to 0.2 ± 0.0 % ID and the “radioactivity (% ID) Stomach” value is recorded as 0.1 ± 0.1 % ID. For the same substance, under setting [4], the “radioactivity (% ID) Kidney” value is 0.9 ± 0.3 % ID, the “radioactivity (% ID) Liver” value came out at 49.5 ± 5.6 % ID, the “radioactivity (% ID) Lung” value is given as 0.1 ± 0.1 % ID and the “radioactivity (% ID) Small intestine” value stood at 27.8 ± 6.5 % ID. Moreover, under setting [4], the “radioactivity (% ID) Spleen” value is 0.2 ± 0.1 % ID and the “radioactivity (% ID) Stomach” value was determined as 1.1 ± 0.7 % ID.

For the origin of these results see patent US11701440B2, “Modified antibody and radioactive metal-labelled antibody” (NIHON MEDI-PHYSICS CO., LTD., priority 2018, dated 2023).
